Test results from the supplement of paper PMC10567573.

B1: NEK8 (parent)
chain: VVGTPCYISPELCEGKPYNQKSDI

Variants of: B1
Assay: protein stability index of a GFP-peptide fusion (GPS, HEK-293T) (PSI 1-6); higher = more stable
Conditions: c terminus: a fixed tail appended
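Further: lentivirally expressed fusions sorted by FACS into six bins by GFP to DsRed ratio, PSI derived from sequencing read proportions per bin multiplied by bin number.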

Variant	protein stability index
VVGTPCYISPELCEGKLYNQKSDI [P17L]	2.23
VVGTPCYISPELCEGKRYNQKSDI [P17R]	3.38
VVGTPCYISPELCEGKNYNQKSDI [P17N]	3.12
VVGTPCYISPELCEGKVYNQKSDI [P17V]	2.55
VVGTPCYISPELCEGKAYNQKSDI [P17A]	2.91
VVGTPCYISPELCEGKWYNQKSDI [P17W]	1.65
VVGTPCYISPELCEGKQYNQKSDI [P17Q]	2.77
VVGTPCYISPELCEGKDYNQKSDI [P17D]	3.05
VVGTPCYISPELCEGKEYNQKSDI [P17E]	3.09
VVGTPCYISPELCEGKKYNQKSDI [P17K]	2.99
VVGTPCYISPELCEGKIYNQKSDI [P17I]	2.39
VVGTPCYISPELCEGKYYNQKSDI [P17Y]	2.27
VVGTPCYISPELCEGKTYNQKSDI [P17T]	3
VVGTPCYISPELCEGKMYNQKSDI [P17M]	2.35
VVGTPCYISPELCEGKFYNQKSDI [P17F]	1.99
VVGTPCYISPELCEGKHYNQKSDI [P17H]	2.9
VVGTPCYISPELCEGKCYNQKSDI [P17C]	2.22
VVGTPCYISPELCEGKGYNQKSDI [P17G]	2.76
VVGTPCYISPELCEGKSYNQKSDI [P17S]	3.02
VVGTPCYISPELCEGGPYNQKSDI [K16G]	2.55
VVGTPCYISPELCEGMPYNQKSDI [K16M]	2.81
VVGTPCYISPELCEGWPYNQKSDI [K16W]	1.55
VVGTPCYISPELCEGEPYNQKSDI [K16E]	3.05
VVGTPCYISPELCEGHPYNQKSDI [K16H]	2.15

Variant	protein stability index
VVGTPCYISPELCEGLPYNQKSDI [K16L]	2.07
VVGTPCYISPELCEGTPYNQKSDI [K16T]	2.54
VVGTPCYISPELCEGQPYNQKSDI [K16Q]	2.79
VVGTPCYISPELCEGDPYNQKSDI [K16D]	3.14
VVGTPCYISPELCEGRPYNQKSDI [K16R]	2.62
VVGTPCYISPELCEGIPYNQKSDI [K16I]	2.02
VVGTPCYISPELCEGSPYNQKSDI [K16S]	2.17
VVGTPCYISPELCEGAPYNQKSDI [K16A]	2.16
VVGTPCYISPELCEGPPYNQKSDI [K16P]	2.15
VVGTPCYISPELCEGCPYNQKSDI [K16C]	2.43
VVGTPCYISPELCEGYPYNQKSDI [K16Y]	1.96
VVGTPCYISPELCEGFPYNQKSDI [K16F]	2.11
VVGTPCYISPELCEGVPYNQKSDI [K16V]	2.78
VVGTPCYISPELCEGNPYNQKSDI [K16N]	3.13
VVGTPCYISPELCEGKPYNMKSDI [Q20M]	2.22
VVGTPCYISPELCEGKPYNKKSDI [Q20K]	3.15
VVGTPCYISPELCEGKPYNGKSDI [Q20G]	2.71
VVGTPCYISPELCEGKPYNAKSDI [Q20A]	2.44
VVGTPCYISPELCEGKPYNIKSDI [Q20I]	2.24
VVGTPCYISPELCEGKPYNCKSDI [Q20C]	2.57
VVGTPCYISPELCEGKPYNNKSDI [Q20N]	3.3
VVGTPCYISPELCEGKPYNHKSDI [Q20H]	2.59
VVGTPCYISPELCEGKPYNEKSDI [Q20E]	2.63
VVGTPCYISPELCEGKPYNWKSDI [Q20W]	1.89

Variant	protein stability index
VVGTPCYISPELCEGKPYNFKSDI [Q20F]	1.85
VVGTPCYISPELCEGKPYNVKSDI [Q20V]	2.79
VVGTPCYISPELCEGKPYNRKSDI [Q20R]	2.84
VVGTPCYISPELCEGKPYNSKSDI [Q20S]	2.49
VVGTPCYISPELCEGKPYNTKSDI [Q20T]	2.48
VVGTPCYISPELCEGKPYNYKSDI [Q20Y]	2.14
VVGTPCYISPELCEGKPYNPKSDI [Q20P]	2.31
VVGTPCYISPELCEGKPYNLKSDI [Q20L]	2.55
VVGTPCYISPELCEGKPYNDKSDI [Q20D]	2.54
VVGTPCYISPELCWGKPYNQKSDI [E14W]	2.5
VVGTPCYISPELCYGKPYNQKSDI [E14Y]	2.25
VVGTPCYISPELCEGKPYNQKCDI [S22C]	2.52
VVGTPCYISPELCEGKPYNQKVDI [S22V]	2.36
VVGTPCYISPELCEGKPYNQKRDI [S22R]	3.01
VVGTPCYISPELCEGKPYNQKKDI [S22K]	3.12
VVGTPCYISPELCEGKPYNQKNDI [S22N]	2.58
VVGTPCYISPELCEGKPYNQKPDI [S22P]	3.08
VVGTPCYISPELCEGKPYNQKHDI [S22H]	2.77
VVGTPCYISPELCEGKPYNQKLDI [S22L]	2.63
VVGTPCYISPELCEGKPYNQKYDI [S22Y]	2.37
VVGTPCYISPELCEGKPYNQKDDI [S22D]	3.05
VVGTPCYISPELCEGKPYNQKTDI [S22T]	2.95
VVGTPCYISPELCEGKPYNQKFDI [S22F]	2.5
VVGTPCYISPELCEGKPYNQKQDI [S22Q]	2.85

Variant	protein stability index
VVGTPCYISPELCEGKPYNQKADI [S22A]	2.48
VVGTPCYISPELCEGKPYNQKIDI [S22I]	2.5
VVGTPCYISPELCEGKPYNQKMDI [S22M]	2.51
VVGTPCYISPELCEGKPYNQKGDI [S22G]	2.67
VVGTPCYISPELCEGKPYNQKEDI [S22E]	3.31
VVGTPCYISPELCEGKPYNQKWDI [S22W]	1.26
VVGTPCYISPELCEGKPKNQKSDI [Y18K]	3.67
VVGTPCYISPELCEGKPENQKSDI [Y18E]	3.72
VVGTPCYISPELCEGKPMNQKSDI [Y18M]	3.15
VVGTPCYISPELCEGKPWNQKSDI [Y18W]	2.6
VVGTPCYISPELCEGKPCNQKSDI [Y18C]	3.05
VVGTPCYISPELCEGKPQNQKSDI [Y18Q]	3.5
VVGTPCYISPELCEGKPPNQKSDI [Y18P]	3.4
VVGTPCYISPELCEGKPVNQKSDI [Y18V]	3.67
VVGTPCYISPELCEGKPNNQKSDI [Y18N]	3.63
VVGTPCYISPELCEGKPRNQKSDI [Y18R]	3.58
VVGTPCYISPELCEGKPFNQKSDI [Y18F]	2.67
VVGTPCYISPELCEGKPHNQKSDI [Y18H]	2.7
VVGTPCYISPELCEGKPANQKSDI [Y18A]	3.6
VVGTPCYISPELCEGKPSNQKSDI [Y18S]	3.86
VVGTPCYISPELCEGKPDNQKSDI [Y18D]	3.53
VVGTPCYISPELCEGKPGNQKSDI [Y18G]	3.45
